We go through 1 substance from publication doi:10.1101/2023.09.11.557127.

In this assay the target is human wild-type 5-HT1AR with C-terminal ARMS2-PK2 (5-HT1AR-ARMS2-PK2) (human) (UniProt P08908). The assay is described as follows: split reporter.
UniProt P08908, sequence (P08908 whole entry): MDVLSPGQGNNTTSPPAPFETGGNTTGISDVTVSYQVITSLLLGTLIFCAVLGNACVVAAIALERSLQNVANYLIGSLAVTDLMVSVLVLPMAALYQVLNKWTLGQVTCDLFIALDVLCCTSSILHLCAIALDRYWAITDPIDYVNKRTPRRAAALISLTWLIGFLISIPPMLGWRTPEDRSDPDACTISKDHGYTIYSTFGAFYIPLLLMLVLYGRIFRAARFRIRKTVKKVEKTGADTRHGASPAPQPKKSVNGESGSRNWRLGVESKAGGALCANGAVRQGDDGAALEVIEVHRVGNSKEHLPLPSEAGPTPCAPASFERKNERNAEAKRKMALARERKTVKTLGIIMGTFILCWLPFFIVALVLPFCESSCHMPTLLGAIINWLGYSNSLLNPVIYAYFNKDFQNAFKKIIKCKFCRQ

For the substance “β-arrestin-2-EA (from UniProt P32121 1-409) (natural protein)”, the Emax of recruitment with ST171, elevated GRK2 (% of serotonin) came out at 15%; the Emax of recruitment with ST171, native GRK2 (% of serotonin) is less than 5%; the Emax of recruitment with befiradol, elevated GRK2 (% of serotonin) was 96%; the Emax of recruitment with befiradol, native GRK2 (% of serotonin) turned out to be 67%.
